In experiment [1] the target is MERS-five-helix bundle (MERS-5HB) (MERS-CoV) (UniProt K0BRG7). Nature of the experiment: ELISA. Background: ELISA stands for enzyme-linked immunosorbent assay.
Experiment [2] deals with MERS-HR2P (MERS-CoV). Nature of the experiment: ELISA.
The target of experiment [3] is MERS-HR2P (MERS-CoV). Nature of the experiment: BLI. (Biolayer interferometry detects binding as a change in optical thickness at a sensor tip.)

For orientation: EC50 means the concentration needed to bring the measured effect to its halfway point. Read a low EC50 as greater potency. Usually Kd stands for the constant that tells how readily two partners part at equilibrium. A high value points to weaker binding. In general, koff refers to the rate constant with which the complex falls apart. As a reminder, the kon is the rate constant with which the complex forms. Higher therefore signals faster complex formation.

For MERS-HR2P (peptide), in experiment [1], the EC50 came to 31.8 nM.
In the case of “MERS-five-helix bundle (MERS-5HB) (from UniProt K0BRG7) (designed binder)”, in the experiment with MERS-HR2P (MERS-CoV) [2], the EC50 was determined as 5.4 nM. In the experiment with MERS-HR2P (MERS-CoV) [3], this substance came in with a Kd of 0.24 nM, a koff of 1.26e-05 s⁻¹ and a kon of 52600 M⁻¹ s⁻¹.

The values above are taken from PMC5618021.
